Results taken from a protein production outcome set (Wang et al. 2014).

Experiment: label from the status in PepcDB records
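Further: failed if final PepcDB status was selected cloned or expressed and not failed if soluble or beyond.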

Row | Sequence | protein production
1 | EMGVAYLTEVVVNEVVEAHEVPEVQHALNINSSESLIHIVRTRRLNQHVKIVDEDYFLKSIVSDIGNDVASDSIYDYLEKVLNLNISYSSKSITFEPFDEQAYQLFGDVSVAYSATVRSIVYLENTMPFQYNISKHLANEFKFNDFSRRRIK | failed
2 | MRNIYDLANELERGIRALPEYKNLVEKKEAIATDAEASALFKEFTDFQEDFYAKMQAGTMPTAEEQAAVQELGQKVEANALLKEYLTAQQSLSVYLNDIERIIFKPLQELNN | failed
3 | MNRKLRRANLKASEPTPHETGNVINYMRQGRYAEAAHLAKGLTERFPDHGFGWKILGICTLLLGQNGDALPLFLKAAGLLPDDPDIHCNIGIIYYELNQLNEAEYYCRYALKLRPNDAIAHNNLGNILSSLGRLDEAEACFRRAIENNPDLAQAHYNLGSALQALGRLEEAESCYRRATAIRPTYEEAYASLGNVLKEMGRLDEALESWKLSLAHQEDWTNALRRLTNPLLMDGDLTRGPEYPAADAAEGQPRQLSSHPAAASVESLDRKYRVPSHGHDGSAEAGAVAGRDENAPRPLRIVLVYPPLWQIPSADLAVPEGMPFGPPATAGGPVAISRELKTITQGVLSIAAQAKKAGHDVRVYNLFNAPWADIVALIAGTGADVYGVSAYNSNRRGMGALCALIRQYHPHAHITVGGPFATTLPLETLRYYRAIDTVVVGEGEETFMELLDHIRSHRPAVGIPGTAWRNGDEVALGPVRPRIGDLDTLASHFDYYSSNIVMTSRGCPSKCSFCGNPVLWGRKIRFYSTDYCIDMFRKALARLPVPYLMIADDTFTANQQRTLNMCDAIIGNKLDFLWSCSTRVDAMEDKVLHRMRRAGCQEIMIGVESGSPEILERIHKGITPEMVLTVTRAAKKYGMLVHYYMMVINRGETPDTLQASIDLIKAGRPNSYDLTPLMFLPGTEDYGHLCEQQGLTSDIFFRNDFMDISVERKRKKDLDTVMQHLYCSIGTIGGYEYTVAEREAVVEHLPDVPTVHVELANAYLRAGQLDKATAALTRAEELGFPIGNIILNQHACIALARNQIDTSLDFLERACRSFPDVTVKGNYDKLAAWIDSRTSGQVKPCLLCDSVRAQDFVFRADETAP | failed
4 | MSLSGPRVERLEVSAYTVPTDYPESDGTLQWDSTTMILVEAHGGGRKGLGYTYGDVSVGRFVESKLAGVAEGSDALSPPAVWARMQAAIRNAGRPGVGAMAVSAVDIALWDLKARLLGLPLADALPRFHAEVPVYGSGGFTSYPLRRLQEQLGGWAAAGIPRVKMKVGREPEKDPERVRAAREAIGESVELMVDANGAYTRKQALYWAGAFAREAGISYLEEPVSSEDREGLRLLRDRGPGGVAIAAGEYEWTLPQLHDLAGCVDILQADVTRCGGITGLLRVDGICRGHQIPFSAHCAPAVSAHACCAVESLLHLEYFHDHARVERLLFDGTLDPEGGSLRPDPDRPGLGLELKRSEAGKYAAEGHHHHHH | not failed
5 | MGHHHHHHSHMATSSQYRQLLSDYGPPSLGYTQGTGNSQVPQSKYAELLAIIEELGKEIRPTYAGSKSAMERLKRGIIHARGLVRECLAETERNARS | not failed
6 | MASTNQELASALRMFSRFFDLIHQPLAVINERGEYVYYNQESADLDGYSIERAMGKHMLDVYPGMKETQSTMLSSLKKGVEYIGHYQIYYNARGQAVDYQHTTAPLYASDGGMVGVIEIGRNMSGVRRLQEQVVELNQLLYADHHEKHHAIITENPEMLSNIAKAKRLAASNIPVTIVGETGTGKELFSRLIHQCSKRANKPFIALNCGALPPTLIESTLFGTVRGAYTGAENSQGYLELANGGTLFLDELNAMPIEMQSKLLRFLQDKTFWRLGGQQQLHSDVRIVAAMNEAPVKLIQQERLRADLFYRLSVGMLTLPPLRARPEDIPLLANYFIDKYRNDVPQDIHGLSETARADLLNHAWPGNVRMLENAIVRSMIMQEKDGLLKHIIFEQDELNLGVPETAPENPLPSSPDPQYEGSLEVRVANYERHLIETALDTHQGNIAAAARSLNVSRTTLQYKVQKYAIRFGVVRN | failed
7 | MGKYTSEHHKDSRIVQLFQDGQYFYHKGLKAYRERNLSRASKLIQRAIFLEPENTGMLSQLAVIYTEMGFYQQSNELLDFILKNINEKMTECYYFKANNYAHLGLFQEAYKAAETYLKEDPDGEFSEENAELLDLLDMGEEDQGYSQFDQDDLILKQDRAKSLLENGQLQESIAMLEEIISDYPEFWSAYNNLALAYFYAGDVQKAKTTVFTVLEKSHGNLHALCNLLIFYHYERRDDKVEALSEQLSNIYPMLFEQRYKLGATLALVGRYDLGFKWLKSLYRMGFEGDETFYYWLACSAYYTGRVQFARSVWKKMQEEYPDDARMEPWKERKEKRPVQRPLEERLAAYYISGRKGEKAQLKAVLDSQMAKTPFEDQFVRLVLYGESGAAVDSKDALLAYRTAKAIEQADQSAMEQEAMCFWIFHVIQQIRAYGLQLKNAGGLAAAIYYIWKTEHQERLTKAETAKIFQISPGTLSKYERTLKEHL | failed
8 | MPQVALFGAVGAIGQSIARTLRSQGQPYRVVGRSQSSLLKAYGADPLAEPVTWDPDQPASVEAAAAGIDTLIYLVGVDYWRFELHPQLMRQTLDGAIAAGVRRILLIGTVYPYGMARSNPVAEQHPRQPNSFKGRMRKAQEDLLWKAHADGKIQATVLRLPDFYGPGVDKSLLHGAFQAAVQGGTANLVGPLDRPHEFVFVPDVGPVVCRLIQQPEAFGKTWHLGGAGVTSQRELLELIRQHGGARFKQRVIGKPLLRLLGLFDPLLREMVEMHYLISSPLILDDSALQALIGPIAKTSYTEGVRQTLAASAGAPQNVKR | failed
9 | MHNHNNRLVITPGEPAGVGPDLAITLAQQDWPVELVVCADPALLLARASQLNLPLQLREYQADQPAIAQQAGSLTILPVKTAVNVVPGKLDVGNSHYVVETLAKACDGAISGEFAALVTGPVQKSIINDAGIPFIGHTEFFADRSHCQRVVMMLATEELRVALATTHLPLLAVPGAITQASLHEVITILDNDLKTKFGITQPQIYVCGLNPHAGEGGHMGHEEIDTIIPALNTLRQQGINLIGPLPADTLFQPKYLQHADAVLAMYHDQGLPVLKYQGFGRAVNITLGLPFIRTSVDHGTALELAATGTADVGSFITALNLAIKMINNSNE | not failed
10 | KMLDEKFYSKLLGEELDLIICLPPDFSPLYKYPLFIVQDGKDYFQFGKLARHSEELAVNEQIQKAIFIGIPYKTVMDRREKYHPDGEQNEAYIRFLAFELVPYLEERFPSFQMPTSRFL | not failed
11 | MMKEKLESKKDEIRCCYKITDTDVAVLLKMVEIEKPITSEELADIFKLSKTTVENSLKKLIELGLVVRTKTEGKKIGRPKYYYSISSNILEKIRNDLLNCAKRMELAAT | not failed
12 | MTLKAGIVGIGMIGSDHLRRLANTVSGVEVVAVCDIVAGRAQAALDKYAIEAKDYNDYHDLINDKDVEVVIITASNEAHADVAVAALNANKYVFCEKPLAVTAADCQRVIEAEQKNGKRMVQIGFMRRYDKGYVQLKNIIDSGEIGQPLMVHGRHYNASTVPEYKTPQAIYETLIHEIDVMHWLLNEDYKTVKVYFPRQSSLVTTLRDPQLVVMETTSGINIVVEVFVNCQYGYDIHCDVTGEKGMAELPTVASAAVRKAAKYSTDILVDWKQRFIDAYDIEFQDFFDRLNAGLPPAGPTSWDGYLAAVTADACVKSQETGNTEIVELPSKPDFYK | not failed
13 | MPINQPSGQIKLTNVSLVRLKKARKRFEVACYQNKVQDYRKGIEKDLDEVLQIHQVFMNVSKGLVANKEDLQKCFGTTNVDDVIEEIMHKGEIQLSEKERQLMLNKVNNEMLTIVSAKCINPVSKKRYPPTMIHKALQELKFSPVINKPAKLQALEAIKLLVSKQIIPIVRAKMKVKVAISEPSRQPELIEKISKLIASSPGESTKPELDPWTCTGLIDPVNYRDLMTLCDKKGTVQVLDMAVIDNTTHN | failed
14 | MPDYVYGDSMVLKLTLEYSSVLLVSLICCIIAFTSTYTVMPRLINKLKEANVVGNDIHKISKPIVAEMGGIGILFGFTIGMFIGMYCFPELQYELMVTLLVILLVGIVGMVDDLVRLSSREKLFLLFLAGLPIIWVAPPKVGILYMIMMPVAVSIASNLTNMLAGLNGIESGLGSIAMTALTASCIIMGKYDVSIITMAMLGALLAFLMYNRYPSRVFPGDVGTLIIGACIASVAFIGRVKIIALIVLLPNIIDGILKFYSAGVVERHKHRPTEIAEDGKLIAPPEGFNSLIRWILRRPMTEKKVVMIVWSIGMFFGFLGVLLAFILPLDPF | failed
15 | GSGCPLLENVISKTINPQVSKTEYKELLQEFIDDNATTNAIDELKECFLNQTDETLSNVEVFMQLIYDSSLCDLF | failed
16 | MSVLKEYRTVSEVVGPLMIVDQVAGVHYNELVDITLHNGERRKGQVLEVQGDKAMVQLFEGSTGINLAKTKVRFTGHPLELAVSEDMVGRIFDGMGQPIDGGPELIPEKYLDIDGQAINPVARDYPDEFIQTGISAIDHLNTLVRGQKLPVFSGSGLPHNELAAQIARQATVLNSDDNFAVVFAAMGITFEEAEFFMNDLRETGAIDRSVLFINLANDPAIERIATPRIALTTAEYLAYEKGMHVLVIMTDMTNYCEALREVSAARREVPGRRGYPGYLYTNLSTLYERAGRLIGKKGSVTQIPILTMPEDDITHPIPDLTGYITEGQIILSQELYKNGFRPPINVLPSLSRLKDKGSGEGKTRQDHAATMNQLFAAYAQGKQAKELAVVLGESALSETDKLYVAFTNRFEEEYINQGFYTNRSIEESLDLGWELLSILPRTELKRIKDDMLDRYLPKADTTMTKVFVAND | failed
17 | MDESVKSLMLPPPPPLLPPSQGYGSRKIDGDSITNKQIKKFWRQKQIIEEDHLYSAIKAAARVRARNLSDEDYKRFEESLDMEDLETEDHQGLKDWWTKSKYAYLNQPALGSADSLKRKRFSTYTPNCFSFKPCNPLYATSLNVF | failed
18 | MPNCEKEALVVAAAMEKGTIHPIGRYLLPQYWEGPPLCFEYFPGRGLTATVSCIESVTEGNKLRKSSLGSVEFITSLFESQDQSREIKNAVNSSLYGNDFVHALLSLYQKVTLIHLEDQPHQPFYRPISLNLRHVMIKINTFIQFFFRMNQISNHEIGSFSAFATQFFSFLTHYSILPNPINSLNPTLRPLVPCTIHELAPPPAPPPFPSCKSAM | failed
19 | MTDTLFKIMFEGQVRDGVEPETAKANLAGLFKSETAAVQKLFNGEPIALKRGLVHAEAERYIEALKEAGVEARIEPDQAISFNLNEVGNQASPWTPARQAPQDASPYAPPKAQVGSEHYGHSTLKVFTTNGRIGRLRFLAWSMVQCVALVALIALALIVLNWSLVAGGLLIAVLVVVFVTIGVMIGVQRLHDLGWSGWLLLLNLVPFVGSLFPFLIMLLPGTRGANQYGPPPPPNTRGVKVLGIIWIAMIPVISVASIYYSIGKLAEAELALQTDEYEQSLPYDDEQEPGSALNAPADVIEEPQDQNDKQ | failed
20 | SASFVTSKRDFRARAHSNPLNDAEFLVPEDPLRFDWSPFIPDVGSHPIDYVDLGCGYGGLLCELSIAFPNKYMLGMEIRDRVASYCVTKLEELRRLNSKGYRNIGFIRTNCMKFLPFYFPPSSVEKFFICFPDPHFKKKKHRQRLVSLRFLSEAAYCLRPGGMIYIVTDVEELFAWMTNLFAQHPLFLTMDKELVKQQDVLLPYLLNHTDEAQRMKRRGQDTPYWNVFQRKTVFC | failed
21 | RQLVSGRLEVAADGPHLVMPMLARLRASYPGITVNLRLGNAQETLAALLSEHVDVAVLTEVEARPGLFLEELVNSRICALLPRQHPWCERNEGVPLEELDQQIMVLREPGSITRRTFDRACAEQGVQPRVLLELDSREAVT | failed
22 | MIELEVVIRTVASFGLLLIAERILGKQTISQMTIFDFIAAITLGAIAAGLAYNTSIKPHNMAISFSIFVLTIFLISFLSIKNRKLRKFFAGDPTVLIQNGKILESNMRKMRYTLDYLNQQLREKEIFNIEEVLFAILETNGQLTVLRKPQFRHVTKQDLMIAVNQEQRLPIELIMDGEIIENNLKQNRLTESWLLEELRKRDIKVKETVYAVLLGNGDIYVDQYKDHISVPMDKE | failed
